Measured values: publication PMC6246682, “Structural Basis of Tau Interaction With BIN1 and Regulation by Tau Phosphorylation” (Frontiers in Molecular Neuroscience, 2018)

Target: T1, BIN1 SH3 domain (UniProt O00499 513-593)
T1 construct: C-terminal SH3 domain of bridging integrator-1 (BIN1, amphiphysin 2); printed residues E556, E557, W562, F588 fit the 593-residue BIN1 isoform 1; Used 15N-labelled in the titrations and relaxation experiments; Construct limits, host and tags are in Malki et al., 2017; PDB 5i22 is a cited NMR structure of BIN1 SH3 in a complex, used as the starting point of the docking; also called SH3 domain of …
T1 sequence: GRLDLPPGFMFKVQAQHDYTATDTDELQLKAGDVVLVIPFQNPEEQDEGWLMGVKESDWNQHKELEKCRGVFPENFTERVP
Assay: NMR titration; 70 μM 15N-BIN1 SH3 titrated with unlabeled Tau (210–240) peptides (35 to 840 μM); 1H,15N HSQC chemical shift changes; 50 mM phosphate buffer pH 7.3, 20°C; Kd averaged over 7 resonances
Conditions: both partners purified

B1: Tau (210–240) peptide with K224 and K225 mutated into alanines (peptide, UniProt P10636-8 210-240, looked up)
peptide: SRTPSLPTPPTREPAAVAVVRTPPKSPSSAK
notes: Tau residues 210-240 with K224A and K225A; probably as m2; also called the mutated peptide
Kd: 429 ± 94 µM
